To fix the notation:
B1: Folliculin (Rattus norvegicus (Rat)), Q76JQ2 (parent)
chain: MNAIVALCHFCELHGPRTLFCTEVLHAPLPQGAGSGDSPGQVEQAEEEEGGIQMSSRVRAHSPAEGASTDSSSPGPKKSDMCEGCRSLAVGHPGYISHDKETSIKYVSHQHPNHPQLFSIVRQACVRSLSCEVCPGREGPIFFGDEQHGFVFSHTFFIKDSLARGFQRWYSIIAIMMDRIYLINSWPFLLGKIRGIISELQGKALKVFEAEQFGCPQRAQRMNTAFTPFLHQRNGNAARSLTSLTSDDNLWACLHTSFAWLLKACGSRLTEKLLEGAPTEDTLVQMEKLADLEEESESWDNSEAEEEEKAPATAEGAEGRELASCPTESSFLSACGSWQPPKLSVFKSLRHMRQVLGAPSFRMLAWHVLMGNQVIWKSRDVNLVHSAFEVLRTMLPVGCVRIIPYSSQYEEAYRCNFLGLSPPVPIPAHVLASEFVVVVEVHTATRSNPHPAGCEDDQSLSKYEFVVTSGSPVAADRVGPTILNKMEAALTNQNLSVDVVDQCLVCLKEEWMNKVKVLFKFTKVDSRPKEDTQKLLSVLGASEEDNVKLLKFWMTGLSKTYKSHLMSTVRSPTAAESRN

One experiment covers variants of B1. Conditions: with aapk1_rat Prkaa1, P54645.
Chain of aapk1_rat Prkaa1, P54645 (P54645 whole entry): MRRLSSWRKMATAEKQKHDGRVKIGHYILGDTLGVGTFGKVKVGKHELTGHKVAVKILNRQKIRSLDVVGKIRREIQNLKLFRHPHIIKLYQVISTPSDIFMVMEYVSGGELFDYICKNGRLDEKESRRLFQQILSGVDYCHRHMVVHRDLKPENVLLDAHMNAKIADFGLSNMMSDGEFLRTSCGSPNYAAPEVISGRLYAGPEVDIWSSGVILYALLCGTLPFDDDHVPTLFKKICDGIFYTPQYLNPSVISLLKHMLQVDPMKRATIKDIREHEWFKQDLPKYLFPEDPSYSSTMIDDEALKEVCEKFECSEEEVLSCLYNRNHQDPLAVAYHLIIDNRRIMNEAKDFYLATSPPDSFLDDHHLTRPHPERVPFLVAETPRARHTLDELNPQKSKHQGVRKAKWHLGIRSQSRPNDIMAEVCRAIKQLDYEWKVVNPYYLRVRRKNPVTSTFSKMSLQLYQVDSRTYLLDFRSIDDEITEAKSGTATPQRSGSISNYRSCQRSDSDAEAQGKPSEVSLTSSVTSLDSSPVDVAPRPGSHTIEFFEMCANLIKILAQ
Consider S62A, for which the “effect of a mutation on the interaction” value was “decreasing interaction”.

In a further experiment the parent is B1. The note with it: with aapk1_rat Prkaa1, P54645. This is another data set of the same source.
Regarding S62D, the “effect of a mutation on the interaction” value is listed as “increasing interaction”.

The values above are taken from IntAct's records for PubMed 19914239.
